# Assay results: CN110343173A (INST MICROBIOLOGY CAS, dated 2019)
# B1: 人源单克隆抗体YD73 (antibody, V domains shown)
# VH: QVQLVQSGAEVKKPGASVKVSCKASGYTFIAYGISWVRQAPGQGLEWMGWISAHNGNTNYAQKFQGRVTVTTDTTTRTAFMELRNLRSDDTAVYYCARAPWEYNYRSSGYYDSPYWGQGTLVTVSS
# VL: EIVLTQSPGTLSLSPGERATLSCRASQSVVSTYLAWYQQKPGQAPRLLIYDTSTRATGIPDRFSGSGSGTDFTLTISRLEPEDFAVYYCQHYDSSPPWTFGQGTKVEIKR
# Tests used:
# [1] = molecular target: YFV China病毒 (E蛋白, 病毒颗粒上) (yellow fever virus, strain CNYF01/2016 …, UniProt Q1X881 286-683); experiment: cell-based or functional assay
# [2] = molecular target: YFV CNYF01/2016 (YFV-China) 毒株膜蛋白E蛋白胞外区, C端6xHis标签, 大肠杆菌表达复性 (yellow fever virus, strain CNYF01/2016 …, UniProt Q1X881 286-683)
# Sequence of YFV CNYF01/2016 (YFV-China) 毒株膜蛋白E蛋白胞外区, C端6xHis标签, 大肠杆菌表达复性 (Q1X881 286-683, tags left off): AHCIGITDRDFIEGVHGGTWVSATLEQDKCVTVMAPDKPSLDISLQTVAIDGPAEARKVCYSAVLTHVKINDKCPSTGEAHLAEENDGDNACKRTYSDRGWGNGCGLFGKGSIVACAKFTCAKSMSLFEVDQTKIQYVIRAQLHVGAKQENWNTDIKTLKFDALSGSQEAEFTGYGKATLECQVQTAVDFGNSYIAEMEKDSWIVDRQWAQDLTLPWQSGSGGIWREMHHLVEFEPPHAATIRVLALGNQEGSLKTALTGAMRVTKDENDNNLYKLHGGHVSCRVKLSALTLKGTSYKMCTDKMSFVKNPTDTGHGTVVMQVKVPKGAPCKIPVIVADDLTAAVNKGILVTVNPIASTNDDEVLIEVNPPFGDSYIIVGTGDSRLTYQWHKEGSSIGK
# Sequence of YFV China病毒 (E蛋白, 病毒颗粒上) (Q1X881 286-683, tags left off): as above
binder,measurement,setting,value
B1,"中和试验 IC50 (Vero细胞感染, FACS检测阳性细胞比例)",[1],3.7 ng/mL
same,Kd,[2],0.588 nM
